The record followed here is patent US20200317768A1 (published 2020).

Experiment [1] deals with T1, human FcγRIIaH extracellular domain, C-terminal His-tag (human, UniProt P12318 34-217).
T1 construct: Soluble extracellular domain expressed in FreeStyle 293 cells; also called FcgRIIaH; human FcγRIIa (type H); not shown: His-tag added to the C-terminus
T1 sequence: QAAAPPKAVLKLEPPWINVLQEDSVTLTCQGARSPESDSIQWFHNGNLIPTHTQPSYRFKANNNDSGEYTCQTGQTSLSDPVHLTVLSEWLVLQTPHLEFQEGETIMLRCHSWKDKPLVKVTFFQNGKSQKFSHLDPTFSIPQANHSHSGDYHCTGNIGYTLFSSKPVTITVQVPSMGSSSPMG
Description: SPR (BIACORE); KD of SG1 divided by KD of the variant. Here is the method:
(§1) The kinetic analysis of interactions between these antibodies and FcγR was carried out using BIACORE® T200 or BIACORE® 4000 (GE Healthcare). HBS-EP+ (GE Healthcare) was used as the running buffer, and the measurement temperature was set to 25° C. A chip produced by immobilizing Protein A. Protein A/G or mouse anti-human IgG kappa light chain (BD Biosciences) onto a Series S Sensor Chip CM4 or CM5 (GE Healthcare) by the amine-coupling method was used. […] After the measurement, the antibody captured on the chip was washed off by allowing reaction with 10 mM glycine-HCl, pH1.5 and 25 mM NaOH so that the chip was regenerated and used repeatedly. The sensorgrams obtained as measurement results were analyzed by the 1:1 Langmuir binding model using the BIACORE® Evaluation Software to calculate the binding rate constant ka (L/mol/s) and dissociation rate constant kd (l/s), and the dissociation constant KD (mol/L) was calculated from these values. […] Regarding such interactions, KD values were calculated using the following 1:1 binding model described in BIACORE® T100 Software Handbook BR1006-48 Edition AE.
(§2) Furthermore, the substitutions used in Example 29 for improving antibody half-life and reducing binding to rheumatoid factor were introduced into human FcγRIIb-enhanced Fc variants and their affinity against human FcγRs were analyzed (Table 29). In this SPR analysis, all the data were obtained using mouse anti-human IgG kappa light chain for capturing the antibodies of interest.
(In general: SPR reads the build-up and loss of mass on a sensor chip optically.)

In experiment [2] the target is T2, human FcγRIIb extracellular domain, C-terminal His-tag (human, UniProt P31994 43-217).
T2 construct: Soluble extracellular domain expressed in FreeStyle 293 cells; also called FcgRIIb; not shown: His-tag added to the C-terminus
T2 sequence: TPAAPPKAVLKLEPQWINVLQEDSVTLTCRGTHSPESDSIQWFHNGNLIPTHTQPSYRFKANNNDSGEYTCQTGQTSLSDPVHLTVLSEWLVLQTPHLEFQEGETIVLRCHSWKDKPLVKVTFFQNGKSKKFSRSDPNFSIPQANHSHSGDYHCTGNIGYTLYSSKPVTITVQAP
The experiment is described as above. As for the experimental part:
as §1, §2

Experiment [3] has as its target T3, human FcγRIIaR extracellular domain, C-terminal His-tag (human, UniProt P12318 34-217).
T3 construct: Soluble extracellular domain expressed in FreeStyle 293 cells; also called FcgRIIaR; human FcγRIIa (type R); not shown: His-tag added to the C-terminus
T3 chain: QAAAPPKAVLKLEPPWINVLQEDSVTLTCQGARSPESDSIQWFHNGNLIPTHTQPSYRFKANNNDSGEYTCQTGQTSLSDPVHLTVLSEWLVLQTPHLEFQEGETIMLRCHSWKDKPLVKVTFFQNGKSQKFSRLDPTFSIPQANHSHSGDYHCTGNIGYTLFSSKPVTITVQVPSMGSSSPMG
The experiment is described as above. As for the experimental part:
as §1, §2

Experiment [4] deals with T4, human FcγRIIIaV extracellular domain, C-terminal His-tag (human, UniProt P08637 17-208).
T4 construct: Soluble extracellular domain expressed in FreeStyle 293 cells; also called FcgRIIIaV; not shown: His-tag added to the C-terminus
T4 sequence (P08637 17-208 F176V): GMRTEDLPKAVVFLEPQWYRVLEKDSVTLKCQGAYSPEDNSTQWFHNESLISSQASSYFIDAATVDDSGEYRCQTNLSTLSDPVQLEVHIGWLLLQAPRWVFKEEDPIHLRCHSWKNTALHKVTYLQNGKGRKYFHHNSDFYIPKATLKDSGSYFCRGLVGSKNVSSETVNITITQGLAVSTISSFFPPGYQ
The experiment is described as above. As for the experimental part:
as §1, §2

In experiment [5] the target is T1, human FcγRIIaH extracellular domain, …. As to the kind of experiment: SPR (BIACORE), antibody captured by mouse anti-human IgG kappa light chain, FcgR extracellular domain as analyte, 25 C. As for the experimental part:
as §1, §2

For experiment [6], the target named is T2, human FcγRIIb extracellular domain, …. The experiment is described as above. As for the experimental part: as §1, §2
The target of experiment [7] is T3, human FcγRIIaR extracellular domain, …. Described as above. As for the experimental part: as §1, §2
For experiment [8], the target named is T4, human FcγRIIIaV extracellular domain, …. The experiment is described as above. Here is the method: as §1, §2

B1: MS103240H795-TT69/M103202L1045-SK1 (antibody)
heavy: QVQLVESGGGLVQPGGSLRLSCAVSGIDLSHDDISWVRQAPGKGLEWVSIISYAGSTYYASWAKGRLTISKDTSKNQVVLTMTNMDPVDTATYYCARGVPAYSHGGDLWGQGTLVTVSSASTKGPSVFPLAPSSKSTSGGTAALGCLVKDYFPEPVTVSWNSGALTSGVHTFPAVLQSSGLYSLSSVVTVPSSSLGTQTYICNVNHKPSNTKVDKKVEPKSCDKTHTCPPCPAPELLGGDSVFLFPPKPKDVLMISRTPEVTCVVVDVSHEDPEVKFNWYVDGVEVHNAKTKPREEQYNSTYRVVSVLPVLHRDWLNGKEYKCKVSNKALPKPIEKTISKAKGQPREPQVYTLPPSREEMTKNQVSLTCLVKGFYPSDIAVEWESNGQPENNYKTTPPVLDSDGSFFLYSKLTVKKSRWQQGNVFSCSVLHEALHAHTTRKELSLSP
light: DIVMTQSPATLSLSPGERATLSCTTSQSVYHENWLSWFQQKPGQPPKLLIYWASTLAYGVPSRFSGSGSGTDFTLTISSLQPEDAATYYCAGGYGGGRYAFGQGTKVEIKRTVAAPSVFIFPPSDEQLKSGTASVVCLLNNFYPREAKVQWKVDNALQSGNSQESVTEQDSKDSTYSLSSTLTLSKADYEKHKVYACEVTHQGLSSPVTKSFNRGEC
notes: copies: 2 + 2
With B1, the “KD fold for humanFcgRs (SG1 = 1)” value worked out at 0.008 fold in experiment [1], 4.3 fold in experiment [2], 0.04 fold in experiment [3] and 0.001 fold in experiment [4]. Besides, the Kd in experiment [5] was found to be 130 µM; in experiment [6] it was 1.1 µM; in experiment [7], 34 µM; in experiment [8], 530 µM.

B2: MS103240H795-TT70/M103202L1045-SK1 (antibody)
heavy: QVQLVESGGGLVQPGGSLRLSCAVSGIDLSHDDISWVRQAPGKGLEWVSIISYAGSTYYASWAKGRLTISKDTSKNQVVLTMTNMDPVDTATYYCARGVPAYSHGGDLWGQGTLVTVSSASTKGPSVFPLAPSSKSTSGGTAALGCLVKDYFPEPVTVSWNSGALTSGVHTFPAVLQSSGLYSLSSVVTVPSSSLGTQTYICNVNHKPSNTKVDKKVEPKSCDKTHTCPPCPAPELLGGDSVFLFPPKPKDVLMISRTPEVTCVVIDVSHEDPEVKFNWYVDGVEVHNAKTKPREEQYNSTYRVVSVLPVLHRDWLNGKEYKCKVSNKALPKPIEKTISKAKGQRREPQVYTLPPSREEMTKNQVSLTCLVKGFYPSDIAVEWESNGQPENNYKTTPPVLDSDGSFFLYSKLTVDKSRWQQGNVFSCSVMHEALHAHYTRKELSLSP
light: DIVMTQSPATLSLSPGERATLSCTTSQSVYHENWLSWFQQKPGQPPKLLIYWASTLAYGVPSRFSGSGSGTDFTLTISSLQPEDAATYYCAGGYGGGRYAFGQGTKVEIKRTVAAPSVFIFPPSDEQLKSGTASVVCLLNNFYPREAKVQWKVDNALQSGNSQESVTEQDSKDSTYSLSSTLTLSKADYEKHKVYACEVTHQGLSSPVTKSFNRGEC
For B2, the “KD fold for humanFcgRs (SG1 = 1)” value in experiment [1] was 0.013 fold; in experiment [2], 12.7 fold; in experiment [3] it was 0.03 fold; in experiment [4], 0.002 fold. The Kd amounted to 72 µM in experiment [5], 0.37 µM in experiment [6], 40 µM in experiment [7] and 390 µM in experiment [8].

In general, Kd refers to the concentration at which binding is half-saturated. A lower Kd goes with tighter binding.
